Data on 2 molecules can be found in paper PMC9623368, “P38 kinases mediate NLRP1 inflammasome activation after ribotoxic stress response and virus infection” (The Journal of Experimental Medicine, 2022).

This test concerns the target T1, GST-NLRP1^PYD (Homo sapiens, UniProt Q9C000).
T1 construct: NLRP1, human, pyrin domain (PYD), aa 1-92; Vector: customised destination vector based on pGEX-2T; also called GST-NRLP1^PYD; source: E. coli BL21, purified (glutathione resin, gel filtration)
Briefly: ELISA; GST-NLRP1^PYD or GST in PBS immobilised on ELISA plates at 1 ug/ml overnight; serial tenfold dilutions of HA-tagged nanobodies in 10% FBS/PBS; detected with HRP-coupled anti-HA and TMB, absorption at 450 nm. As to conditions: both partners purified. For orientation: ELISA stands for enzyme-linked immunosorbent assay.

T1 sequence (Q9C000 1-92): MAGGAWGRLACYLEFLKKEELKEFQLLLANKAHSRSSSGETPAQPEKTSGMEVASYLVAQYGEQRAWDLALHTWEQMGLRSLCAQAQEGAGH

B1: VHH_(NLRP1 PYD 1) (VHH)
VHH: QVQLVESGGGLVEAGGSLRLSCAASGRTFSNYALSWFRQAPGKERELVAAISWSGDYTYYADSVKGRFTISRDNAKNTVYLQMHSLKPEDTAVYYCNADSRSGTYSPSSGSWGQGTQVTVSS
notes: Alpaca nanobody raised against His-NLRP1^PYD, selected by phage display on GST-NLRP1^PYD; cloned into a pHEN6-based periplasmic vector with C-terminal HA-His6; also called VHHPYD 1; NLRP1^PYD nanobody 1; source: E. coli WK6, periplasmic extract, purified (Ni-NTA, desalting); not shown: HA, C-terminal, kept
For the molecule B1, the binding result is reported as “binds”.

B2: VHH_(NLRP1 PYD) 2 (VHH)
VHH: QVQLVESGGGLVQTGGSLRLSCVASGGTFSRFTMAWFRQAPGKEREFVAGVSWSGGLTHYSDSVKGRFTISRDNAKNTLYLQMSSLKPEDTAVYYCYGQSTVAGATIDYWGQGTQVTVSS
notes: Alpaca nanobody raised against His-NLRP1^PYD, selected by phage display on GST-NLRP1^PYD; cloned into a pHEN6-based periplasmic vector with C-terminal HA-His6; also called VHHPYD 2; NLRP1^PYD nanobody 2; source: E. coli WK6, periplasmic extract, purified (Ni-NTA, desalting); not shown: HA, C-terminal, kept
As to B2, the binding result is “binds”.
